Laboratory results from patent US10059748B2, “Pharmaceutical compositions for prevention or treatment of neurodegenerative diseases” (INSERM (INSTITUT NATIONAL DE LA SANTÉ ET DE LA RECHERCHE …, priority 2014, dated 2018).

What was measured:
primary cortical neurons [1] = assay: Kinetics of neuronal death (pyknotic nuclei, TOPRO-3) after rotenone in microfluidic cultures; format: cell-based, rat; details: somatic application of rotenone
Procedure: 12 day-old neuronal cultures were subjected to oxidative stress by adding the respiratory chain complex I inhibitors rotenone (1 μM, diluted in DMEM containing 1 g/L glucose (Invitrogen), supplemented with 2 mM glutamine+1% penicillin/streptomycin+2% B-27+1% N2 supplements (Invitrogen)) or MPP+(1-methyl-4-phenylpyridinium, 10 μM in complete neuronal culture medium). The microtubule inhibitor colchicine (10 μM, complete neuronal culture medium) was used as a non-mitochondrial stress control. Toxins were added in the somatic or axonal chambers for respectively, somatic or axonal stress.
Neurons in the microfluidic cultures were fixed for 40 min at room temperature with PBS containing 4% paraformaldehyde (PFA), permeabilized using PBS+0.1% Triton-X100 during 20 min, rinsed with PBS, and blocked for 2 h with PBS+2.5% normal goat serum+3% BSA (blocking buffer). […] Fluorescence-based analyses and measurements were performed on either Zeiss LSM-510 or Zeiss LSM-710 inverted confocal microscopes with a 40× objective (63× objective for the analysis of mitochondrial network morphology and quantification of pDrp1 (S616) immunoreactivity). Immuno fluorescence analyses of Drp1 were performed using anti-pDrp1 (S616) (Cell Signaling Technologies, diluted 1:1000). Quantification of fluorescence intensities was performed using the threshold-based fluorescence quantification module of ImageJ software. […]

[2] = tested on: ROS production in primary neurons; assay: ROS production measurement (c-H2DCFDA); format: cell-based, rat; details: LV-transduced neurons, no stress
Procedure: The culture medium was removed from the axonal or somatic chambers and replaced by pre-warmed PBS containing carboxy-2′,7′-dichlorodihydrofluorescein diacetate (c-H2DCFDA, 5 μM in PBS; LifeTechnologies) for 45 min at 37° C., 5% CO2. After 2 washes in PBS, cultures were returned to warm culture medium for 30 min. Cells were fixed and the integrative fluorescence was measured on 3 randomly selected fields for each axonal chamber. Tert-butyl hydroperoxide (TBHP, LifeTechnologies) was used as a positive control of ROS detection. ROS amounts were detected by fluorescence (excitation/emission: 495/529 nm) and quantified by measuring integrative emission signal intensities for each culture (mean of 4 randomly taken pictures in the case of microfluidic cultures using Zeiss LSM 510 confocal; signal intensity of the whole culture for traditional cultures, using a VarioSkan Flash fluorescence reader (Thermo Electron)).

[3] = tested on: mitochondrial membrane potential (ΔΨm) of primary neurons; assay: Mitochondrial membrane potential analysis (JC-1); format: cell-based, rat; details: LV-transduced neurons, no stress
Procedure: Axons were stained with JC-1 dye (2 μM in PBS; LifeTechnologies) as described by the manufacturer. Briefly, JC-1 was added to the culture medium for 45 min at 37° C., 5% CO2, washed twice with PBS and analyzed by confocal microscopy using 488 nm excitation together with 530 nm and 585 nm band pass emission filters, whilst maintaining the cells at 37° C. and 5% CO2. Total fluorescence intensity was measured for each emission band pass with fixed thresholds and ratios between “red” (585 nm: active mitochondria) and “green” (530 nm: total mitochondria network) were determined for each culture (means of 4 randomly chosen pictures for each microfluidic culture).

OPA1, Mfn1/2, Fis1, Drp1 = assay: Expression and recruitment of mitochondrial fission/fusion actors; format: cell-based; details: X-expressing cells
[4] = tested on: oxygen consumption rates of primary neurons; assay: Mitochondrial respiration measurements (Seahorse XF24 OCR); format: cell-based, rat; details: LV-transduced neurons, no stress
Procedure: Real-time measurements of oxygen consumption rates (OCR) were performed using a Seahorse XF24 extracellular flux analyzer (Seahorse Bioscience). Neurons were seeded and grown for 9 days in Seahorse XF24-wells plates (3×10^4 cells/well). Transduction with lentiviral vectors was performed on the 3rd day after seeding. Before measurements, the culture medium was replaced by warm respiration medium: DMEM without phenol red supplemented with 10 mM glucose, 2 mM L-Glutamine and 2 mM Pyruvate (Gibco) (the pH of the final culture medium was adjusted to 7.4). Following three 2-minute baseline measurements of OCR (3 minute-rest between each measure), mitochondrial complex inhibitors were sequentially injected into each well. Three OCR readings were taken after addition of each inhibitor and before automated injection of the subsequent inhibitor. Mitochondrial complex inhibitors, in order of injection, were Oligomycin (2 μM) to inhibit complex V (i.e., ATP synthase), FCCP (20 μM) to uncouple the proton gradient, Rotenone (2.0 μM), to inhibit complex I and Antimycin (2.0 μM), to inhibit complex III. OCR values were automatically calculated, recorded, and plotted by the Seahorse XF24 software.

[5] = tested on: mitochondrial network of primary neurons; assay: Analysis of mitochondrial network morphology (Tom20 staining); format: cell-based, rat
Procedure: (§1) Primary cortical neurons were prepared from Sprague-Dawley rat embryos at gestational day 17. After dissection, cortex tissue was dissociated by a 15 min incubation at 37° C. in PBS containing 10 U/ml Papain (Worthington), followed by a gentle dissociation in PBS containing 1.5 mg/ml bovine serum albumin (BSA) and 1.5 mg/ml Trypsin inhibitor (from chicken egg, Sigma-Aldrich). After centrifugation through a 4% BSA cushion, neurons were plated on culture dishes coated with 0.5 mg/ml Poly-DL-Ornithine (PO, overnight, Sigma-Aldrich) and 5 mg/ml Laminin (2 h, Roche). Neuronal cultures were maintained in complete neuronal culture medium composed of serum-free Neurobasal (Gibco) supplemented with 2 mM L-Glutamine, 100 μg/ml penicillin/streptomycin (Gibco) and 2% B-27 supplement (Gibco).
Neurons were grown for 9 days at low density on 12 mm diameter glass coverslips placed in 24-well plates (5×10^4 cells per well). Transduction with lentiviral vectors was performed on day 3, whereas peptide was added to the medium on day 9. Neurons were left untreated or subjected to rotenone treatment (5 to 100 nM for 2 h, diluted in PBS), rinsed, fixed and directly stained for neuronal marker (βIII-tubulin) and mitochondria (Tom20, Santa Cruz Biotech.). Confocal pictures were taken and blinded to the investigator before image analysis. The sizes of mitochondria in all neuronal extensions of randomly selected neurons were determined using ImageJ software and mitochondria were classified in size categories (ranging from <2 μm to >8 μm). Each category was expressed as percentages relative to the size of the total mitochondrial network for a given neuron.

primary cortical neurons [6] = assay: Axonal fragmentation in microfluidic primary neuron cultures after toxin treatment; format: cell-based, rat; details: neurons transduced with lentiviral vectors; rotenone in axonal chamber 16 h
Procedure: as §1, with “(Gibco). […]” for “(Gibco).”
The analysis of axonal degeneration was performed both by phase contrast observation and after immunostaining of axonal βIII-tubulin (Sigma-Aldrich). […] For each microfluidic culture, the total βIII-tubulin staining area was measured on 4 randomly selected pictures taken in the axonal chamber (MetaMorph software analysis, fixed thresholds). Then, the number of tubulin spots of fragmented axons was manually counted (Imaris software, Spot counting for “clicking” records) and the ratio between the number of spots and the total staining area was defined as a fragmentation index. […]

[7] = tested on: nigrostriatal dopaminergic (DA) neurons; assay: MPTP intoxication mouse model of PD, TH immunodetection in striatum and SNpc; format: in vivo; details: lentiviral vector, stereotaxic injection in SNpc two weeks before MPTP
Procedure: Peptides covering the N-terminal (PX1, aa 1-30), middle (PX2, aa 29-59) or C-terminal (PX3, aa 59-87) parts of BDV X protein (GenBank: ABW81015.1) coupled to the MPP sequence were synthesized to >95% (in vitro studies) or >99% (in vivo studies) purity (Génosphère). For in vitro experiments, neurons were grown for 12 days before replacing the medium by fresh complete neuronal culture medium containing 5 μM of the peptides. The cultures were maintained 90 min at 37° C., 5% CO2 before any treatment or analysis to ensure peptide penetration into neuronal mitochondria. For intra-cerebroventricular delivery, peptides were injected as described below. For intranasal peptide delivery, 10 μl drops of peptide solution (1 mM solution in saline: H2O+0.9% NaCl) were placed onto the mice nostrils daily from the day before to the 3rd day after MPTP intoxication. […]
For immunohistochemical staining, free-floating brain sections were first quenched for 5 min in 20% (v/v) methanol and 1% (v/v) hydrogen peroxide diluted in PBS, then blocked for 30 min in a 4% solution of BSA diluted in PBS-0.3% Triton-X100 and incubated overnight at 4° C. with a primary antibody directed against tyrosine hydroxylase (1:500 dilution, US biological). […] TH-positive neurons were quantified stereologically on regularly spaced sections covering the whole Substantia Nigra pars compacta (SNpc). […]

[8] = tested on: Drp1 (S616) phosphorylation; assay: Immunofluorescence quantification of phospho-Drp1 (S616); format: cell-based, rat
Procedure: Neurons in the microfluidic cultures were fixed for 40 min at room temperature with PBS containing 4% paraformaldehyde (PFA), permeabilized using PBS+0.1% Triton-X100 during 20 min, rinsed with PBS, and blocked for 2 h with PBS+2.5% normal goat serum+3% BSA (blocking buffer). Incubation for at least 2 h at room temperature with primary antibodies diluted in blocking buffer was followed, after extensive washes in PBS, by 1 h incubation at room temperature with fluorescently-conjugated secondary antibodies diluted in PBS. For TOPRO3 staining, somatic chambers were incubated with TOPRO3 (1:1000 in PBS; Invitrogen) for 10 min and then rinsed twice in PBS. All incubation and washes were reduced by 50% for neurons grown in standard coverslips. Fluorescence-based analyses and measurements were performed on either Zeiss LSM-510 or Zeiss LSM-710 inverted confocal microscopes with a 40× objective (63× objective for the analysis of mitochondrial network morphology and quantification of pDrp1 (S616) immunoreactivity). Immuno fluorescence analyses of Drp1 were performed using anti-pDrp1 (S616) (Cell Signaling Technologies, diluted 1:1000). Quantification of fluorescence intensities was performed using the threshold-based fluorescence quantification module of ImageJ software. All data were normalized on βIII-tubulin staining.

Row | Molecule | time to cell death (primary cortical neurons [1]) [h] | impact on ROS production at steady-state [2] | impact on ΔΨm at steady-state [3] | expression levels of OPA1, Mfn1/2, Fis1, Drp1 vs control cells (OPA1, Mfn1/2, Fis1, Drp1) | recruitment of Drp1 to the mitochondria vs control cells (OPA1, Mfn1/2, Fis1, Drp1) | impact on respiration at steady-state [4] | rotenone-induced mitochondrial fission ([5]; after rotenone) | weighted mean size of mitochondria ([5]; after rotenone-induced oxidative stress (10 nM rotenone 2 h)) [μm] | decrease of short, fragmented mitochondria (<2 μm) ([5]; steady state) [%] | weighted mean size of mitochondria ([5]; steady state, without rotenone) [μm] | protection against rotenone-induced axonal fragmentation (primary cortical neurons [6]) | ipsilateral TH-positive neurons in the SNpc after MPTP [7] | ipsilateral striatal fibers (TH) after MPTP [7] | enhanced Drp1 phosphorylation after treatment with rotenone ([8]; after rotenone) | phosphorylation of Drp1 on serine-616 ([8]; steady state)
1 | C=C(C)[C@H]1Cc2c(ccc3c2O[C@@H]2COc4cc(OC)c(OC)cc4[C@@H]2C3=O)O1 [rotenone] | < 4 | – | – | – | – | – | – | – | – | – | – | – | – | – | –
2 | X protein: 87 amino acid X protein of Borna Disease Virus, expressed from a lentiviral vector (LV-X) (protein, Borna disease virus) MSSDLRLTLLELVRRLNGNATIESGRLPGGRRRSPDTTTGTVGVTKTTEDPKECIDPTGRPAPEGPQEEPLHDLRPRPANRKGAAIE | – | no impact | no impact | did not find any significant difference | no difference | no impact | significantly reduced | 4.54 | 60 | 5.22 | same level of axonal protection as infection with BDV | almost complete protection | preservation | selectively reduced | severely reduced
